From the supplement of paper PMC10567573

B1: FAM189A2 (parent)
chain: NLAGFILGCQGAQFVSSVPRCDLV
B2: LCOR (parent)
chain: YKVKERLGTLKNPPKKKMKLMSG

Variants of: B1
Assay: protein stability index of a GFP-peptide fusion (GPS, HEK-293T) (PSI 1-6); higher = more stable
Settings: c terminus: a fixed tail appended
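Further: lentivirally expressed fusions sorted by FACS into six bins by GFP to DsRed ratio, PSI derived from sequencing read proportions per bin multiplied by bin number.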

Protein stability index of substitutions, site by site:
D22: M 2.78 | N 3.21 | P 3.08 | G 1.75 | K 2.59 | C 2.27 | V 2.39 | I 2.13 | E 1.18 | F 2.58
V24: E 2.23 | D 1.76 | C 3.68 | R 2.19 | Q 2.26 | K 1.82 | S 2.12 | F 2.58 | A 1.72 | I 2.26 | T 1.53 | P 2.59 | H 3.38
L23: R 1.58 | Y 2.52 | C 3.66 | D 2.45 | K 1.94 | I 2.33 | F 3.42 | S 1.93 | W 3.69 | N 2.75 | P 2.98 | G 1.28
C21: T 2.56

Variants of: B2
Assay: as above
Settings: c terminus: native

Protein stability index of substitutions, site by site:
K11: S 1.55 | Y 2.48 | D 1.76 | G 3.44 | N 2.29 | E 1.69 | M 3.04 | C 2.02 | R 2.39 | A 3.29 | H 1.79 | Q 1.44 | I 3.65
E5: C 1.74 | K 2.21 | P 2.25 | D 1.78 | V 2.94 | F 2.71 | I 1.75 | G 2.44 | R 1.95 | T 2.22 | H 2.85 | S 2.11 | A 1.75 | N 1.25 | W 3.07 | Q 1.22
P14: N 1.49 | Y 3.03 | A 1.42 | I 1.78 | L 1.32 | W 2.41 | C 2.14 | H 2.87 | T 1.63 | E 1.37 | K 1.77 | G 3.94 | D 1.71 | M 3.42 | S 3.59
Y1: L 2.59 | A 2.34 | N 1.9 | P 1.72 | V 2.05 | S 2.2 | W 2.2 | F 1.23 | K 1.54 | G 1.2 | D 2.03 | M 1.93 | E 2.15
L10: S 1.85 | Y 3.47 | M 2.8 | K 1.85 | F 2.46 | G 1.35 | C 2.19 | R 2.23 | N 2.85 | T 2.52 | E 2.04 | P 1.42 | Q 1.52 | A 2.38 | V 2 | D 1.86 | H 1.85 | W 2.42 | I 1.5
K4: A 1.88 | M 1.26 | Q 1.88 | G 2.1 | P 1.35 | L 2.23 | D 1.45 | S 1.93 | R 3.6 | E 2.48 | N 2.97 | W 3.3 | V 1.22 | H 2.52 | Y 2.3
L7: G 3.22 | M 1.37 | D 2.56 | S 1.55 | I 2.14 | P 1.55 | H 1.84 | A 2.49 | Y 1.53 | E 2.04 | C 2.75 | K 1.98 | W 1.76 | T 1.85 | N 2.53 | Q 1.52 | R 1.06 | F 1.5
K2: E 1.71 | G 1.64 | D 1.48 | N 1.45 | W 3.46 | H 1.88 | L 3.05 | A 1.48 | S 1.8 | I 1.72 | V 3.04 | Y 2.37 | Q 1.31 | C 1.79
G8: I 1.12 | H 1.92 | Y 2.08 | V 2.33 | K 1.47 | S 1.76 | N 1.27 | P 3.05 | Q 3.21 | L 2.22 | R 1.4 | T 2.16 | C 2.52 | M 1.69 | E 2.72 | A 1.85
K15: R 2.04 | D 2.06 | N 2.34 | P 2.99 | E 2.66 | W 3.79 | L 1.58 | I 3.63 | H 2.34 | S 2.17 | Q 1.84
K19: E 2.5 | T 2.38 | G 1.34 | C 2.15 | A 3.4 | Q 3.03 | I 3.48 | P 2.26 | D 2.64 | H 2.51 | N 2.96
K16: G 2.57 | F 1.45 | C 1.15 | Q 2.17 | L 2.34 | M 1.49 | W 2.45 | Y 2.98 | P 1.93 | E 2.83 | I 1.39 | R 2.55 | V 1.87 | N 1.76 | H 1.49 | D 2.35 | S 1.46 | T 1.78
N12: I 1.09 | R 3.15 | T 3.6 | E 1.61 | D 1.65 | A 2.54 | H 2.7 | W 2.83 | M 1.26 | F 1.86 | Y 2.39 | P 2.33 | Q 2.6 | K 2.25 | S 1.72 | C 3.3 | G 2.84 | V 1.86
R6: L 1.84 | E 2.17 | Q 2.16 | K 1.11 | S 3.27 | P 2.47 | M 2.5 | G 2.21 | F 2.2 | W 2.79 | D 1.46 | I 2.49 | Y 2.14 | C 4.96 | T 1.72
M18: L 1.81 | P 2.03 | Y 2.43 | W 1.36 | C 1.82 | F 1.98 | R 2.2 | A 2.49 | N 2.06 | H 2.03 | E 2.24 | Q 2.23 | G 2.59 | I 2.02 | D 3 | T 1.36 | V 2 | S 1.52
V3: M 2.46 | D 2.36 | E 2.08 | N 2.69 | Y 1.69 | Q 3.06 | L 1.97 | W 3.38 | C 1.6 | P 2.27 | H 1.89 | G 1.67 | S 1.92 | F 1.62 | R 2.51 | K 1.98 | T 1.91
T9: D 2.17 | S 2.19 | V 2.35 | Q 2.64 | K 2.06 | W 3.03 | L 3.4 | E 1.53 | Y 2.22 | M 2.39 | N 2.45 | I 1.5 | C 2.2 | G 1.23 | H 2.33 | A 1.96 | R 1.81
P13: L 2.02 | N 2.05 | Q 1.76 | T 2.42 | A 2.68 | C 2.03 | K 3.2 | G 1.5 | V 1.98 | F 2.63 | I 2.27 | H 2.49 | D 1.93 | R 2.2 | E 2.94 | S 2.09
K17: V 1.68 | A 2.41 | R 2.22 | D 1.83 | P 2.59 | I 2.58 | S 1.42 | E 2.63 | L 1.34 | H 2.02 | N 1.83 | F 2.02 | W 1.83 | T 1.76 | Y 2.25 | Q 2.96 | M 1.94 | G 1.43
